Assays:
Format in all cases: cell-based
[1] = system: BE; experiment: PrestoBlue cell viability, anti-IGF-1R antibody with U0126, BE (melanoma); conditions: 48 h
Procedure: (§1) Cells were incubated in 96 well tissue culture plates and cell viability was measured by PrestoBlue cell viability assay (Invitrogen, CA, USA) according to manufacturer's instructions. Fluorescence was measured with excitation at 560 nm and emission at 590 nm. Cell number was calculated from standard curves of fluorescence measurements from known numbers of cells. Triplicate cultures were performed on all experiments.
(§2) The effects of anti-IGF-1R antibodies/MEK inhibitor combination treatment on viability of different types of tumor cells were investigated using PrestoBlue cell viability assay (Invitrogen, CA, USA) according to manufacturer's instructions. (Table 3).
(§3) Cells were incubated in serum free medium for 12 h followed by pretreatment for 60 min without or with 0.5, 1, 3 or 5 μM of the ERK inhibitor U0126, and then treated without or with 100 ng/ml anti-IGF-1R antibodies (Figitumumab or αIR-3 (Calbiochem, US). Cells were incubated in 96 well tissue culture plates for 48 hours and cell viability was measured by PrestoBlue cell viability assay. Fluorescence was measured with excitation at 560 nm and emission at 590 nm. Cell number was calculated from standard curves of fluorescence measurements from known numbers of cells. Triplicate cultures were performed on all experiments. The inhibition induced by anti-IGF-1R antibodies treated cells was calculated as percentage of untreated cells.

[2] = system: DFB; experiment: PrestoBlue cell viability, anti-IGF-1R antibody with U0126, DFB (melanoma); conditions: 48 h
Procedure: as §1, §2, §3

[3] = system: Ewing's sarcoma (ES) cell lines: SKES, RDES, CADO, A673 and SKNMC; experiment: Cell viability of Ewing's sarcoma cell lines (PrestoBlue); conditions: 48 h
Procedure: (§4) FIG. 1A-FIG. 1C. Effects of Figitumumab (CP-751871 (CP)) treatment on cell viability in ES cell lines. (A) Cell lysates were prepared from the indicated cell lines and analyzed by WB for total IGF-1R expression and GAPDH as a loading control. […] Data correspond to the mean±SEM from three independent experiments. […] (C) Indicated cells were treated without and with 100 ng/ml CP for 48 h in the absence (SFM) or presence of 10% fetal bovine serum (Serum) and cell viability assayed by PrestoBlue reagent. […] Data correspond to the mean±SEM from three independent experiments. Statistical analysis compared with SKBR3: *P<0.05, **P<0.01, **P<0.001.
FIG. 6A-FIG. 6C. […] Cell lysates were prepared from the same samples and analyzed by WB for β-arrestin1 (βarr1) and GAPDH as a loading control. Signals were quantified by densitometry, normalized to GAPDH and presented as a percentage of the doxycycline untreated cells. […] During the experiment, cell lysates were collected at 10 min after CP stimulation and analyzed by WB for P-ERK and total ERK as a loading control and at 12 h after CP stimulation and analyzed by WB for IGF-1R and GAPDH as a loading control. Signals were quantified by densitometry, normalized to the loading control and presented as a percentage of the CP untreated cells. […]

[4] = system: SKBR3 and IGF-1R knockout MEF cells (R−); experiment: Cell viability of negative control cells (PrestoBlue); conditions: 100 ng/ml, 48 h
Procedure: as §4, §1
IGF-1R expression was investigated in a panel of validated Ewing's sarcoma (ES) cell lines: SKES, RDES, CADO, A673 and SKNMC. Breast cancer cell line SKBR3, expressing low IGF-1R levels and IGF-1R knockout MEF cells (R−) were used as negative controls. […]

[5] = target: T1, IGF-1R/β-arr1 association (Homo sapiens, UniProt P08069); experiment: β-arrestin1 recruitment to IGF-1R in ES cell lines (immunoprecipitation, WB); conditions: 10 min stimulation; all ES cell lines
T1 construct: endogenous in cells; host or cells: Ewing's sarcoma cell lines
Procedure: FIG. 2A-FIG. 2D. Mechanism of CP induced IGF-1R downregulation: β-arrestin1 recruitment and receptor ubiquitination. (A) Cells incubated in serum free medium for 12 h were treated with 0, 0.1 or 1 μg/ml CP for 24 h. Protein lysates were analyzed by WB for IGF-1R and GAPDH as a loading control. […] Protein lysates were analyzed by WB for IGF-1R and GAPDH as a loading control. Signals were quantified by densitometry, normalized to GAPDH and expressed as a percentage of the IGF-1R at 0 h. Data correspond to the mean±SEM from three independent experiments. […] IGF-1R was immunoprecipitated from lysates and analyzed by WB (IB) for ubiquitination (Ub) and IGF-1R as a loading control. Molecular weight markers in KDa are indicated to the left of the panels. (D) β-Arrestin1 (β-arr1) was immunoprecipitated from cell lysates prepared as for (C). Immunoprecipitated proteins were analyzed by WB for IGF-1R. The whole lysates were analyzed by WB for GAPDH as a loading control.
Cells were lysed with 500 μl lysis buffer (110 mM KOAc, 0.5% (v/v) Triton X-100, 100 mM NaCl, protease inhibitor cocktail tablet (Roche), buffering salts pH 7.4). 500 μg of protein was incubated with Dynabeads protein G (10 μl) (Invitrogen, CA, USA) and 1 μg antibody overnight at 4° C. on a rotator platform. […]
These trends were confirmed by densitometric quantification of multiple experiments (FIG. 2B, graphs). […]

[6] = U0126 0 μM (60 min pretreatment)
[7] = U0126 0.5 μM (60 min pretreatment)
[8] = U0126 1 μM (60 min pretreatment)
[9] = U0126 3 μM (60 min pretreatment)
[10] = U0126 5 μM (60 min pretreatment)

B1: CP-751,871: anti-IGF-1R antibody figitumumab (Pfizer), IGF-1R antagonist (antibody, chains of the INN, looked up)
heavy: EVQLLESGGGLVQPGGSLRLSCTASGFTFSSYAMNWVRQAPGKGLEWVSAISGSGGTTFYADSVKGRFTISRDNSRTTLYLQMNSLRAEDTAVYYCAKDLGWSDSYYYYYGMDVWGQGTTVTVSSASTKGPSVFPLAPCSRSTSESTAALGCLVKDYFPEPVTVSWNSGALTSGVHTFPAVLQSSGLYSLSSVVTVPSSNFGTQTYTCNVDHKPSNTKVDKTVERKCCVECPPCPAPPVAGPSVFLFPPKPKDTLMISRTPEVTCVVVDVSHEDPEVQFNWYVDGVEVHNAKTKPREEQFNSTFRVVSVLTVVHQDWLNGKEYKCKVSNKGLPAPIEKTISKTKGQPREPQVYTLPPSREEMTKNQVSLTCLVKGFYPSDIAVEWESNGQPENNYKTTPPMLDSDGSFFLYSKLTVDKSRWQQGNVFSCSVMHEALHNHYTQKSLSLSPG
light: DIQMTQFPSSLSASVGDRVTITCRASQGIRNDLGWYQQKPGKAPKRLIYAASRLHRGVPSRFSGSGSGTEFTLTISSLQPEDFATYYCLQHNSYPCSFGQGTKLEIKRTVAAPSVFIFPPSDEQLKSGTASVVCLLNNFYPREAKVQWKVDNALQSGNSQESVTEQDSKDSTYSLSSTLTLSKADYEKHKVYACEVTHQGLSSPVTKSFNRGEC
Question: For B1, which “Percentage inhibition of antibody treated cells (100 ng/ml)” value (from here on “Percentage inhibition”) [1, 6] is on record?
Answer: 22%

Question: What about the “Percentage inhibition” value [1, 7] of the same molecule?
Answer: 27%

Question: And the “Percentage inhibition” value [1, 8]?
Answer: 32%

Question: What about the “Percentage inhibition” value [1, 9] of the same molecule?
Answer: 45%

Question: And the “Percentage inhibition” value [1, 10]?
Answer: 55%

Question: What about the “Percentage inhibition” value [2, 6] of the same molecule?
Answer: 15%

Question: And the “Percentage inhibition” value [2, 7]?
Answer: 17%

Question: What about the “Percentage inhibition” value [2, 8] of the same molecule?
Answer: 24%

Question: And the “Percentage inhibition” value [2, 9]?
Answer: 45%

Question: And the “Percentage inhibition” value [2, 10]?
Answer: 55%

Question: What about the “Cell viability (cell number) of ES cell lines” value ([3]; 100 ng/ml, presence or absence of serum, all ES cell lines) of the same molecule?
Answer: decreased cell number

Question: What about the “Sensitivity (cell viability) of combined treatment with MEK inhibitor U0126 versus CP-751,871 alone” value ([3]; ES cell lines, U0126 pre-treatment 60 min, 100 ng/ml CP) of the same molecule?
Answer: increased sensitivity

Question: What about the “Cell viability of negative control cells” value [4] of the same molecule?
Answer: unaffected

Question: What about the “β-arr1 recruitment to the receptor compared with IGF-1” value [5] of the same molecule?
Answer: much more potent than IGF-1 in recruiting β-arr1

Source: patent US20140335077A1, “Compositions and Methods for the Treatment of Cancer Using IGF-IR Antagonists and MAPK/ERK Inhibitors” (priority 2013, published 2014)
